Results taken from the supplement of paper PMC10567573.

B1: DLC1 (parent)
chain: NDDSADYQHFLQDCVDGLFKEVKE
B2: DCAF4 (parent)
chain: PGIDRPGMLCSFRIPGAWSCAWSL

Variants of: B1
Assay: protein stability index of a GFP-peptide fusion (GPS, HEK-293T) (PSI 1-6); higher = more stable
Conditions: c terminus: a fixed tail appended
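Further: lentivirally expressed fusions sorted by FACS into six bins by GFP to DsRed ratio, PSI derived from sequencing read proportions per bin multiplied by bin number.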

Protein stability index, by site and new letter:
V22: C 4.3 | D 5.46 | E 5.42 | F 3.84 | G 5.01 | H 5.31 | I 2.58 | K 5.5 | L 3.32 | M 4.08 | N 5.27 | P 4.26 | Q 4.37 | R 5.08 | S 5.4 | T 4.87 | W 4.73 | Y 4.05
K23: A 2.56 | D 4.98 | E 3.72 | F 2.83 | G 4.37 | H 3.88 | I 1.9 | L 2.06 | M 2.01 | N 3.37 | P 4.57 | Q 2.75 | R 2.57 | S 3.09 | T 1.65 | V 2.05 | W 2.66 | Y 2.35
E24: A 2.17 | C 2.33 | D 2.33 | F 2.11 | G 3.66 | H 1.88 | I 2.1 | K 2.2 | L 2.36 | M 2.3 | N 2.5 | P 4.54 | Q 2.51 | R 2.01 | S 1.91 | T 2.81 | V 2.69 | W 1.67 | Y 1.66

Variants of: B2
Assay: as above
Conditions: c terminus: a fixed tail appended

Protein stability index: each site, then its substitutions
P1: A 1.93 | C 2.36 | D 2.31 | G 3.67 | H 2.96 | K 1.96 | L 3.17 | M 3.39 | N 3.47 | Q 3.03 | R 2.46 | S 3.17 | T 3.59 | Y 3.48
G2: C 3.1 | D 3.96 | F 1.6 | H 3.15 | I 2.26 | K 2.19 | L 2.54 | M 3.72 | P 1.94 | Q 2.39 | R 3.78 | S 2.55 | T 2.59 | V 1.85 | W 1.83 | Y 3
I3: A 2.91 | D 1.96 | E 4.15 | F 2.26 | G 1.51 | H 2.39 | K 2.3 | L 3.31 | M 2.5 | N 4.44 | P 2.33 | Q 3.25 | S 2.97 | T 2.93 | V 2.56 | W 3.75
D4: C 2.61 | E 2.38 | F 2.74 | I 3.29 | M 1.91 | N 2.05 | P 2.56 | Q 2.42 | T 2.56 | W 2.65 | Y 2.27
R5: A 2.47 | C 2.89 | D 3.46 | E 3.11 | F 3.57 | G 2.74 | I 1.87 | K 2.04 | L 2.46 | M 3.37 | N 3.74 | P 2.75 | Q 3.37 | V 1.94 | Y 2.76
P6: A 3.48 | C 2.65 | E 1.44 | F 3.41 | G 3.28 | H 2.66 | K 2.83 | M 4.05 | N 2.76 | Q 3.62 | R 3.89 | S 2.83 | T 2.65 | V 2.93 | Y 3.44
G7: A 2.7 | D 2.11 | F 4.52 | H 2.09 | I 3.13 | K 2.7 | M 2.31 | N 2.67 | P 2.83 | Q 2.63 | R 2.05 | S 3.09 | T 3.46 | V 2.84 | W 2.23 | Y 2.28
M8: A 2.31 | C 2.66 | E 2.42 | G 3.31 | H 2.83 | I 3 | K 2.34 | L 3.01 | N 2.11 | R 1.99 | S 3.62 | T 3.54 | Y 1.56
L9: D 3.26 | E 2.62 | F 2.7 | G 1.77 | H 2.92 | I 3.09 | K 3.08 | N 2.9 | P 2.5 | Q 1.76 | R 3.61 | S 2.32 | T 1.7 | V 2.85 | W 2.82 | Y 2.31
C10: A 1.68 | D 2.17 | E 2.82 | F 3.57 | G 2.12 | H 3.98 | I 3.54 | K 2.77 | M 3.1 | N 2.65 | P 2.2 | Q 1.58 | S 2.9 | W 3.64 | Y 3.23
S11: A 3.01 | C 2.19 | D 2.44 | E 2.68 | F 3.19 | G 3.07 | H 3.42 | K 2.81 | L 2.81 | M 2.95 | P 3.14 | Q 2.82 | R 3.98 | T 1.56 | V 1.85 | Y 3.16
F12: C 3.41 | D 2.19 | E 2.5 | G 2.29 | H 2.68 | I 2.26 | K 1.79 | L 2.62 | N 2.87 | P 3.71 | Q 2.67 | S 2.7 | T 2.12 | V 3.38 | W 4.14
R13: C 2.03 | D 1.97 | E 3.65 | F 2.68 | G 2.33 | H 2.34 | I 3.22 | L 3.69 | P 3.03 | S 2.59 | T 3.39 | V 2.94 | Y 2.9
I14: A 1.77 | C 1.79 | D 2.83 | E 1.76 | F 2.32 | G 1.54 | H 2.46 | K 1.68 | L 2.47 | M 1.82 | N 1.5 | Q 2.64 | R 3.12 | S 2.65 | W 2.12 | Y 2.14
P15: C 2.96 | E 3.99 | F 3.83 | H 3.44 | I 2.28 | K 3.5 | L 2.04 | M 2.89 | N 2.56 | Q 4.94 | S 2.74 | V 1.8 | Y 3.12
G16: C 2.39 | D 2.18 | E 3.31 | F 2.83 | H 4.24 | I 3.24 | K 3.56 | L 3.68 | N 2.91 | P 3.49 | Q 2.3 | R 2.68 | S 3.06 | T 3.2 | V 2.81 | W 1.49 | Y 2.84
A17: C 2.26 | D 3.01 | E 3.28 | F 2.16 | G 3.29 | I 2.79 | L 2.79 | M 3.08 | N 2.48 | P 1.61 | Q 2.13 | R 3 | S 4.12 | T 1.77 | Y 2.95
W18: A 3.12 | C 2.32 | D 1.76 | E 1.68 | G 2.18 | H 2.73 | K 2.9 | L 2.87 | M 2.71 | N 2.54 | P 2.33 | Q 2.21 | R 3.25 | S 2.36 | T 2.63 | V 3.98 | Y 3.06
S19: A 3.16 | D 2.11 | E 2.19 | G 2.78 | H 1.6 | I 2.23 | K 4.35 | L 2.61 | M 2.51 | P 1.66
